Reference: paper PMC9519624

Target: IPO11 (Importin-11) (UniProt Q9UI26)
Assay: co-immunoprecipitation, western blot
Conditions: reference: wild-type RPRM; sites S98

binding against the reference: stronger
Substance: RPRM (Reprimo) (from UniProt Q9NS64) RPRM S98A
